# US20130115677
# Residue numbers refer to the chain shown, from its start.
# Legend:
# Test in all cases: cleavage_in_vitro
# [1] = tested on: T1, SphI (Streptomyces phaeochromogenes); conditions: NEB4, 37 C, Mg2+
# T1 sequence: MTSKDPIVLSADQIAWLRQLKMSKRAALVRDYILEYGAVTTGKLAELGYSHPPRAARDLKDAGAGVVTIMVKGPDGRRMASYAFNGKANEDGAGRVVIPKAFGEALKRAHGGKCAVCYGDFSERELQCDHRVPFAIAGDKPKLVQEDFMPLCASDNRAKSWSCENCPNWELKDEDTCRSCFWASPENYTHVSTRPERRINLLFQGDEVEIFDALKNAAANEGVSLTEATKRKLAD
# [2] = target: T2, BamHI-HF E163A/E167T (Bacillus amyloliquefaciens) (UniProt P23940); conditions: NEB4, 37 C, Mg2+
# T2 sequence: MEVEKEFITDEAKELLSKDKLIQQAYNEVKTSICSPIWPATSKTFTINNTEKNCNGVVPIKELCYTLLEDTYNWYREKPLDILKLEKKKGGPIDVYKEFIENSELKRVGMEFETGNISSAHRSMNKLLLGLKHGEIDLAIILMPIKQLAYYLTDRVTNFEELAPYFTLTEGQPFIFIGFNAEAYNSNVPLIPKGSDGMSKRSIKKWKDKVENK
# [3] = target: EcoRI (Escherichia coli RY13) (UniProt P00642); conditions: NEB4, 37 C, Mg2+; 250 in NEB1 and NEB3
# [4] = target: EcoRI(K62A) K62A (Escherichia coli RY13) (UniProt P00642); conditions: NEB4, 37 C, Mg2+
# [5] = target: T3, HindIII (Haemophilus influenzae Rd) (UniProt P43870); conditions: NEB4, 37 C, Mg2+
# T3 sequence: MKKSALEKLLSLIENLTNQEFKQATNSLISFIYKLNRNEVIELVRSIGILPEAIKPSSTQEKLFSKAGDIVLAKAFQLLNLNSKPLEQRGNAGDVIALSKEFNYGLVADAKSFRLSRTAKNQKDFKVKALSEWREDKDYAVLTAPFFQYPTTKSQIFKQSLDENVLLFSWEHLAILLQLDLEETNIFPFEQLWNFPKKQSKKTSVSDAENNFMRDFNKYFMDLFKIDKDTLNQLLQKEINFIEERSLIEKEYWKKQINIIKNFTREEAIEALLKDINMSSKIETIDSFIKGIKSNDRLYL
# [6] = tested on: T4, BsmBI-HF N185Y/R232A (Bacillus stearothermophilus); conditions: NEB4, 55 C, Mg2+
# T4 sequence: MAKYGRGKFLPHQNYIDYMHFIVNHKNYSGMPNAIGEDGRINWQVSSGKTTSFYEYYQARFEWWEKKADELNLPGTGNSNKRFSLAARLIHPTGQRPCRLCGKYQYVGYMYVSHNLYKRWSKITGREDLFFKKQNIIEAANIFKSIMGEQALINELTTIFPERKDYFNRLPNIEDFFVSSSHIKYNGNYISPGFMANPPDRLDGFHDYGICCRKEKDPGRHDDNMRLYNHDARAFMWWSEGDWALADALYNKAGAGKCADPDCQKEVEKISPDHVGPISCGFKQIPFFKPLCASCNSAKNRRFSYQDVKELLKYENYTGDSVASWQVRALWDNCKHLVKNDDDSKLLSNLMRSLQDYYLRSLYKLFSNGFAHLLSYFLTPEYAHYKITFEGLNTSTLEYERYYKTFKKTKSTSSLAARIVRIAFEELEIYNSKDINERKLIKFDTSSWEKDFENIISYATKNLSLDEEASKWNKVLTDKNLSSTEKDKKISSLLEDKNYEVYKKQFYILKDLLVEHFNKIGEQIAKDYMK
# [7] = target: T5, ScaI-HF H193A/S201F (Streptomyces caespitosus) (UniProt O52691); conditions: NEB4, 37 C, Mg2+
# T5 sequence: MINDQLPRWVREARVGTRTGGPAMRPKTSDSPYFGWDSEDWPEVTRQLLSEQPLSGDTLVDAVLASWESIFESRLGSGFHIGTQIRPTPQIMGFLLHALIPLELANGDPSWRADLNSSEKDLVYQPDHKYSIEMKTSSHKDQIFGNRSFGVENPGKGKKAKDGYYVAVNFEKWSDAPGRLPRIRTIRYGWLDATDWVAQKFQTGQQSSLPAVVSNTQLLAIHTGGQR
# [8] = tested on: T6, SspI (Sphaerotilus species); conditions: NEB4, 37 C, Mg2+
# T6 sequence: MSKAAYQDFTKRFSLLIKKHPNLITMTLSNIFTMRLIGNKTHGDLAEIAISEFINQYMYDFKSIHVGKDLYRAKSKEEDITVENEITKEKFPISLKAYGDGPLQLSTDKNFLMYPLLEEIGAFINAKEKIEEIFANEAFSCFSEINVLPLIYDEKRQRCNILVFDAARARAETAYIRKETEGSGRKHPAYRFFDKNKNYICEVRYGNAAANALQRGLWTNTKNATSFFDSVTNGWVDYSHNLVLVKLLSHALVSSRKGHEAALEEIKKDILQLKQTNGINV
# [9] = tested on: T7, SspI-HF Y98F (Sphaerotilus species); conditions: NEB4, 37 C, Mg2+
# T7 sequence: T6 sequence with Y98F
# [10] = tested on: T8, SbfI-HF K251A (Streptomyces species Bf-61?); conditions: NEB4, 37 C, Mg2+
# T8 sequence: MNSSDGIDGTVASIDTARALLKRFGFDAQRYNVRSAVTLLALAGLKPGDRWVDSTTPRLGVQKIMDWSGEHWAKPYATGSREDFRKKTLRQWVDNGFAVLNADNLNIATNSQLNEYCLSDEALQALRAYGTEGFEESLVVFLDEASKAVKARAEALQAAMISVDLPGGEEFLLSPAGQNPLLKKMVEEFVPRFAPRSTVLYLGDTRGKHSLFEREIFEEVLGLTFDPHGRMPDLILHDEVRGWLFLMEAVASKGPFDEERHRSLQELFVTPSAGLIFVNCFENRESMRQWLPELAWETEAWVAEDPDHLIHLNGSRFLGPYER
# [11] = target: T9, BamHI (Bacillus amyloliquefaciens) (UniProt P23940); conditions: NEB4, 37 C, Mg2+
# T9 sequence: T2 sequence with A163E, T167E
substance,measurement,setting,value
lambda DNA,activity (fidelity index),[1],16
same,activity (fidelity index),[2],> 4000
same,activity (fidelity index),[3],4
same,activity (fidelity index),[4],32000
same,activity (fidelity index),[5],32
same,activity (fidelity index),[6],> 500
same,activity (fidelity index),[7],1000
same,activity (fidelity index),[8],16
same,activity (fidelity index),[9],500
same,activity (fidelity index),[10],250
same,activity (fidelity index),[11],4
